In series [1] the target is T1, I-SceI homing endonuclease (expressed in yeast from GAL1-10 promoter) (UniProt P03882 P03882:1-235).
T1 sequence: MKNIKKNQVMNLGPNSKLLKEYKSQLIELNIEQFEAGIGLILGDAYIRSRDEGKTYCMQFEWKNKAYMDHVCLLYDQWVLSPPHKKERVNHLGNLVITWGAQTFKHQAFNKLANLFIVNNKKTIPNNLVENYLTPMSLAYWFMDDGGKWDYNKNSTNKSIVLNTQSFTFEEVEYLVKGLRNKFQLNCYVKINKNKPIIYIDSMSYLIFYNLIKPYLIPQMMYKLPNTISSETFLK
Nature of the series: cell_activity; gene correction over C.TRP5.40 (202 vs 13.9); 32-fold with PAGE-purified oligos.

Series [2] addresses T1, I-SceI homing endonuclease (expressed …). As to the kind of experiment: cell_activity; gene correction over non-binding C.TRP5.54 (62500 vs 8950 per 1e7 cells); galactose. Particulars: aptamer hairpin at 5' end (predicted). As to the method:
(§1) For this experiment, I-SceI was induced 3 h by addition of galactose (final concentration 2%) to the liquid YPLac medium before transformation by oligonucleotides, and cells were plated on selective media containing glucose. Viability after transformation was calculated by plating to glucose-containing synthetic complete medium. Viability after transformation for the I-SceI-containing strains was typically 20-40% both on glucose and galactose. […] The frequency of gene correction is based on the number of transformants relative to 10⁷ viable cells that formed a colony on galactose-containing synthetic complete medium (or glucose-containing synthetic complete medium depending on the transformation experiment). Yeast cell culture and standard molecular biology techniques were used as previously described
Therefore, we removed the primer regions surrounding the I-Sce I aptamer sequence in the bifunctional oligonucleotides, and this also allowed us to extend the sequence length of the gene-correction donor part of the bifunctional molecule. Oligonucleotides that contained the aptamer sequences from A4 or A7 at the 5′ end of a DNA sequence containing 54 bases of homology to restore the disrupted trp5 gene (A4.TRP5.54 and A7.TRP5.54, Table 1) were tested in yeast strains FRO-155/156 and FRO-526/527 (T5B and T5 in FIG. 1) for their capacity to restore the functionality of the trp5 gene. […]

For series [3] the target is unchanged. As to the kind of experiment: cell_activity; gene correction over C.TRP1.54; 55R5-3C. The procedure:
as §1, with “Sequences of oligonucleotides used for repair can be found in Table 1. Cells from each transformation were diluted appropriately and plated to synthetic complete medium lacking the respective amino acid and containing 2% galactose for I-SceI induction, 2 or 0.2% galactose for HO induction or 2% glucose for I-SceI or HO repression. The exception to this is the experiment to determine the position of the aptamer in the targeting DNA sequence (at the 5′ or 3′ end). For” for “For”, “described […]” for “described”

The target is the same in series [4]. Nature of the series: cell_activity; gene correction over C.ADE2.54; BY4742 and 55R5-3C. The procedure: as §1, with “Sequences of oligonucleotides used for repair can be found in Table 1. Cells from each transformation were diluted appropriately and plated to synthetic complete medium lacking the respective amino acid and containing 2% galactose for I-SceI induction, 2 or 0.2% galactose for HO induction or 2% glucose for I-SceI or HO repression. The exception to this is the experiment to determine the position of the aptamer in the targeting DNA sequence (at the 5′ or 3′ end). For” for “For”, “described […]” for “described”

For series [5], the target named is T2, I-SceI homing endonuclease (UniProt P03882 P03882:1-235).
T2 sequence: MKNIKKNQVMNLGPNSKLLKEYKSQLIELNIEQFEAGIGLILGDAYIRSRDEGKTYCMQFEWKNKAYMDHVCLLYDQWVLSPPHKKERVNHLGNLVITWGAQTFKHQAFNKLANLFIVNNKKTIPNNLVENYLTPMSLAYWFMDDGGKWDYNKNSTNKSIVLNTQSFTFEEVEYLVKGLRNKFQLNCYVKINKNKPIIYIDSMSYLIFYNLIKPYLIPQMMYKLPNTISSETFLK
Nature of the series: capillary electrophoresis with LIF; binding affinity about 3.16 uM; 50 nM A7, 1 uM I-SceI (FIG. 9D); binding also seen by EMSA. To be noted: tags: provided by F. Gimble (Purdue University), dialyzed; label: 5' FAM; hairpin with 4-nt loop (mfold prediction). The procedure:
(§2) The protocol for SELEX using capillary electrophoresis (CE) was essentially as described earlier (Berezovski, et al., Nat. Protoc., 1:1359-1369 (2006)), but with a few modifications. Initial calibrations were done with a serial dilution of the aptamer library in RB1. The free DNA run time with 100 nM of the library was determined (FIG. 8A). […] CE was done using a Beckman Coulter (Atlanta, Ga., USA) P/ACE MDQ with laser-induced fluorescence (LIF) detection. The LIF was composed of a 488-nm air-cooled argon ion laser along with an on-board detector. CE runs were carried out with a voltage of 10 kV. The first round of selection began after determination of the collection window based on the bulk affinity analysis. For the initial round of in vitro selection, the DNA library (5 μl at 200 μM) was mixed with 5 μl of selection buffer 3 (SB3) (100 mM Tris-HCl at pH 8.2, 200 mM NaCl and 10 mM MgCl₂) for a final concentration of 100 μM DNA library, 50 mM Tris-HCl at pH 8.2, 100 mM NaCl and 5 mM MgCl₂. This mixture was heated in the BioRad iCycler™ to 94° C. for 1 min, and then cooled to 20° C. at a rate of 0.5° C./s. After the folding of the DNA library, 5 μl of 200 nM I-SceI dissolved in selection buffer 1 (SB1) (50 mM Tris-HCl at pH 8.2, 100 mM NaCl and 5 mM MgCl₂) was added to 5 μl of the DNA-SB3 mixture to make the final volume to 10 μl. […]

Series [6] has as its target T2, I-SceI homing endonuclease. Nature of the series: EMSA; negative control; described as non-binding random control; 3 uM I-SceI, Mg2+, Zn2+, gel result not shown. Particulars: tags: provided by F. Gimble (Purdue University), dialyzed; label: 5' 32P. As to the method:
The internal region was chosen using a random DNA sequence generator with a specified GC content of 50% (http://www.faculty.ucr.edu/˜mmaduro/random.htm). I-SceI was dialyzed before running the EMSA gels in Run Buffer 1 (RB1), 50 mM Tris-HCl at pH 8.2, as previously described. Bovine serum albumin (BSA) was purchased as a lyophilized powder through Sigma-Aldrich (St. Louis, Mo.) and was greater than 98% pure. BSA stock of 10 mg/ml was made in RB1 buffer.
The buffer conditions used for binding had several components described previously (22). Each reaction consisted of 2 μL 5×EMSA buffer 1 (100 mM Tris-HCl at pH 8.5, 250 mM NaCl, 10 μM ZnCl₂, 10 mM MgCl₂, 10% glycerol), 1 μL BSA (10 mg/ml), 1 μL freshly prepared 20 mM DTT, and 1 μL 100 mM MgCl₂ for a final buffer concentration of 20 mM Tris-HCl, 50 mM NaCl, 2 μM ZnCl₂, […], 1 mg/ml BSA, […], and 2% glycerol. After mixing these components together, 2 μL of dialyzed I-SceI (total of 3 μM) for each reaction was added, bringing the volume to […]. The radiolabeling of the oligonucleotides had varying efficiencies such that the counts per minute (cpm) measurement of the radioactivity for each labeled oligonucleotide was different. […] The radioactivity in the gel was analyzed by Phosphor Imager (Molecular Dynamics—Typhoon Trio Imager™, GE Healthcare Life Sciences, Pittsburgh, Pa.). […]

Series [7] addresses T1, I-SceI homing endonuclease (expressed …). Nature of the series: cell_activity; gene correction over C.LEU2.54; BY4742 and 55R5-3C. The procedure: as §1, with “Sequences of oligonucleotides used for repair can be found in Table 1. Cells from each transformation were diluted appropriately and plated to synthetic complete medium lacking the respective amino acid and containing 2% galactose for I-SceI induction, 2 or 0.2% galactose for HO induction or 2% glucose for I-SceI or HO repression. The exception to this is the experiment to determine the position of the aptamer in the targeting DNA sequence (at the 5′ or 3′ end). For” for “For”, “described […]” for “described”

For series [8], the target named is T2, I-SceI homing endonuclease. Nature of the series: capillary electrophoresis with LIF; binding affinity about 52.49 uM; binding also seen by EMSA. To be noted: tags: provided by F. Gimble (Purdue University), dialyzed; label: FAM. As to the method:
as §2

B1: A7.TRP5.40 (ssDNA)
DNA: GCGGGCGCTGTTGACAGCGGTCAGGTGGATGGGATGGGTTTTGATGAAGCTGTCGCGGATCCCACATTCTGGGAAG
B1 registered an activity in series [1] of 15 fold.

B2: A7.TRP5.54 (ssDNA)
DNA: GCGGGCGCTGTTGACAGCGGTCAGGTGGATGGGATGGGAAAAGGGTTTTGATGAAGCTGTCGCGGATCCCACATTCTGGGAAGACTTCAA
Consider B2, for which the activity in series [2] is 7 fold.

B3: A7.TRP1.54 (ssDNA)
DNA: GCGGGCGCTGTTGACAGCGGTCAGGTGGATGGGATGGTGGCAAGAATACCAAGAGTTCCTCGGTTTGCCAGTTATTAAAAGACTCGTATT
B3 displayed an activity in series [3] of 2.5 fold.

B4: A7.ADE2.54 (ssDNA)
DNA: GCGGGCGCTGTTGACAGCGGTCAGGTGGATGGGATGGGACATTATACCATTGATGCTTGCGTCACTTCTCAATTTGAAGCTCATTTGAGA
B4: the activity in series [4] came to 3 fold.
As to GCGGGCGCTGTTGACAGCGGTCAGGTGGATGGGATG (ssDNA) [A7], the Kd in series [5] is 3.16 µM.

B5: P1-r-P2 (ssDNA)
DNA: CTTCTGCCCGCCTCCTTCCGGTCGGGCACACCTGTCATACCCAATCTCGAGGCCAGACGAGATAGGCGGACACT
On to B5, for which the binding result in series [6] is “no binding”.

B6: A7.LEU2.54 (ssDNA)
DNA: GCGGGCGCTGTTGACAGCGGTCAGGTGGATGGGATGCGCTTTCATGGCCCTACAACATGAGCCACCATTGCCTATTTGGTCCTTGGATAA
Regarding B6, the activity in series [7] was determined as 2 fold.
In series [8], TGAAGGCCAAAACGGCTGAATCGATAGT (ssDNA) [A4] displayed a Kd of 52.5 µM.

The values are drawn from patent US20160032292, “Aptamer-Guided Gene Targeting” (Georgia Tech Research Corporation, published 2016).
